Results on eleven variants are retold here after IntAct's records for PubMed 24793651.

First the molecules themselves.
B1: Autophagy-related protein 13 (Saccharomyces cerevisiae), Q06628 (parent)
chain: MVAEEDIEKQVLQLIDSFFLKTTLLICSTESSRYQSSTENIFLFDDTWFEDHSELVSELPEIISKWSHYDGRKELPPLVVETYLDLRQLNSSHLVRLKDHEGHLWNVCKGTKKQEIVMERWLIELDNSSPTFKSYSEDETDVNELSKQLVLLFRYLLTLIQLLPTTELYQLLIKSYNGPQNEGSSNPITSTGPLVSIRTCVLDGSKPILSKGRIGLSKPIINTYSNALNESNLPAHLDQKKITPVWTKFGLLRVSVSYRRDWKFEINNTNDELFSARHASVSHNSQGPQNQPEQEGQSDQDIGKRQPQFQQQQQPQQQQQQQQQQQRQHQVQTQQQRQIPDRRSLSLSPCTRANSFEPQSWQKKVYPISRPVQPFKVGSIGSQSASRNPSNSSFFNQPPVHRPSMSSNYGPQMNIEGTSVGSTSKYSSSFGNIRRHSSVKTTENAEKVSKAVKSPLQPQESQEDLMDFVKLLEEKPDLTIKKTSGNNPPNINISDSLIRYQNLKPSNDLLSEDLSVSLSMDPNHTYHRGRSDSHSPLPSISPSMHYGSLNSRMSQGANASHLIARGGGNSSTSALNSRRNSLDKSSNKQGMSGLPPIFGGESTSYHHDNKIQKYNQLGVEEDDDDENDRLLNQMGNSATKFKSSISPRSIDSISSSFIKSRIPIRQPYHYSQPTTAPFQAQAKFHKPANKLIDNGNRSNSNNNNHNGNDAVGVMHNDEDDQDDDLVFFMSDMNLSKEG
partner: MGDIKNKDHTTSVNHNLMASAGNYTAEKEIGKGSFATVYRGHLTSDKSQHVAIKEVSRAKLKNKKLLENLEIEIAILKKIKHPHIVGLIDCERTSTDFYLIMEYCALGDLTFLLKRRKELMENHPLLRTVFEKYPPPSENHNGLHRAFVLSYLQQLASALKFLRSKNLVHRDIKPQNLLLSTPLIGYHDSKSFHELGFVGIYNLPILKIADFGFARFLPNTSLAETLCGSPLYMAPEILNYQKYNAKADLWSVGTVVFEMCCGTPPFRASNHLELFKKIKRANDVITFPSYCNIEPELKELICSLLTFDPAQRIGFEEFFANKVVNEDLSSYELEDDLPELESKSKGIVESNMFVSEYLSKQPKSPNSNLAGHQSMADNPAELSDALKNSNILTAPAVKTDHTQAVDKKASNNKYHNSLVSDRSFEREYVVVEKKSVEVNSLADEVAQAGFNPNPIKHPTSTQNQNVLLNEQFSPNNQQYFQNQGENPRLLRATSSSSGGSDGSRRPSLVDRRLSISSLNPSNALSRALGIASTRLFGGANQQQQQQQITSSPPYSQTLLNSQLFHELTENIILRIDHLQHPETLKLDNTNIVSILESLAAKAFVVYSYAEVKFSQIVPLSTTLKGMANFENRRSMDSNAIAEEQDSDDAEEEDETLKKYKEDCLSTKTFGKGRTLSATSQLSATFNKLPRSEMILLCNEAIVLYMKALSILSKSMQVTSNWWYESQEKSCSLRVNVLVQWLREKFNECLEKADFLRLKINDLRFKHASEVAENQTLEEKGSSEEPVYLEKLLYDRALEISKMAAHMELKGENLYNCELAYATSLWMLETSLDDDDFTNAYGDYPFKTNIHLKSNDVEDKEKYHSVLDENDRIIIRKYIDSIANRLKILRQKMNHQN
B2: Autophagy-related protein 13 (Saccharomyces cerevisiae), Q06628 (parent)
chain: B1 chain
partner: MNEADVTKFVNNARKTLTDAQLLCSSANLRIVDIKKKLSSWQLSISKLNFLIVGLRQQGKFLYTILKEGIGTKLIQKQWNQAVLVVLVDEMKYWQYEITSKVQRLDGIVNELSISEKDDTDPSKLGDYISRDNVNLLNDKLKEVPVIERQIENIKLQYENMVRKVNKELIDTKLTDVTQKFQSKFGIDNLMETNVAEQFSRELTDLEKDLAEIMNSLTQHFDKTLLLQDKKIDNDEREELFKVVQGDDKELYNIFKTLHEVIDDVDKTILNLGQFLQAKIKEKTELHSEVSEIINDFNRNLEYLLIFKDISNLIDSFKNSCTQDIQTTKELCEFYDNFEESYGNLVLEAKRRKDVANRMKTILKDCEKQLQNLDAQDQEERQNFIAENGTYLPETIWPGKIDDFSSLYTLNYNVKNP
B3: Autophagy-related protein 17 (Saccharomyces cerevisiae), Q06410 (parent)
chain: B2 partner
partner: B1 chain

In the first experiment the parent is B1. The conditions noted are these: with atg1_yeast ATG1, P53104.
As for L472A, the “effect of a mutation on the interaction” value is reported as “disrupting interaction strength”.

Take F468A: the “effect of a mutation on the interaction” value is “disrupting interaction strength”.

A further experiment covers variants of B1. The conditions noted are these: with atg1_yeast ATG1, P53104. The source holds these as a separate data set.
Regarding F468A, the “effect of a mutation on the interaction” value is “decreasing interaction strength”.

In a further experiment the parent is B1. To be noted: with atg1_yeast ATG1, P53104. This is another data set of the same source.
With F468A;L472A, the “effect of a mutation on the interaction” value was “disrupting interaction strength”.

In the next experiment the parent is B2. The conditions noted are these: with atg17_yeast ATG17, Q06410.
On to S429D, for which the “effect of a mutation on the interaction” value is on record as “disrupting interaction strength”.

In another experiment the parent is B2. To be noted: with atg17_yeast ATG17, Q06410. The source holds these as a separate data set.
Turning to R434A;R435A, the “effect of a mutation on the interaction” value is given as “disrupting interaction strength”.

Take F430A;I433A: the “effect of a mutation on the interaction” value was “disrupting interaction strength”.

As to S428A;S429A, the “effect of a mutation on the interaction” value was “disrupting interaction strength”.

Variants of B3 are the subject of another experiment. The conditions noted are these: with atg13_yeast ATG13, Q06628.
Consider L240A;V243A, for which the “effect of a mutation on the interaction” value is reported as “decreasing interaction strength”.

In the case of D247A, the “effect of a mutation on the interaction” value is “disrupting interaction strength”.

On to D247A;E250A, for which the “effect of a mutation on the interaction” value is “disrupting interaction strength”.

With I213A;S216A, the “effect of a mutation on the interaction” value is recorded as “decreasing interaction strength”.
